Assay results published in publication PMC4555872.

How the values were obtained:
[1] = molecular target: CZA97.012 gp140 (uncleaved, foldon, His-tagged) (HIV-1 (subtype C, CZA97.012) | not stated); experiment: SEC
[2] = molecular target: BG505 WT.SEKS gp140 (uncleaved) (HIV-1 (BG505)); experiment: negative stain electron microscopy
[3] = molecular target: BG505 SOSIP.664 gp140 trimer (cleaved) (HIV-1 (BG505)); experiment: negative stain electron microscopy

With “CZA97.012 gp140 (uncleaved, foldon, His-tagged)” the stoichiometry N [1] was 3.

BG505 WT.SEKS gp140 (uncleaved) gave a stoichiometry N [2] of 3.

“BG505 SOSIP.664 gp140 trimer (cleaved) (complex)” gave a stoichiometry N [3] of 3.
